Reference: US11981731B2, “Targeting cytotoxic cells with chimeric receptors for adoptive immunotherapy” (Novartis AG, priority 2014, dated 2024)

B1: M16: human anti-mesothelin scFv, SEQ ID NO: 245 (protein)
scFv: EVQLVESGGGLVQPGRSLRLSCAASGFTFDDYAMHWVRQAPGKGLEWVSGISWNSGSTGYADSVKGRFTISRDNAKNSLYLQMNSLRAEDTALYYCAKDSSSWYGGGSAFDIWGQGTMVTVSSGGGGSGGGGSGGGGSSSELTQEPAVSVALGQTVRITCQGDSLRSYYASWYQQKPGQAPVLVIFGRSRRPSGIPDRFSGSSSGNTASLIITGAQAEDEADYYCNSRDNTANHYVFGTGTKLTVL
B2: DAP12: T cells expressing DAP12 and dsRed; DAP12 adaptor molecule, SEQ ID NO: 368 (protein)
chain: MGGLEPCSRFLLLPLLLAVSGLRPVQVQAQSDCSCSTVSPGVLAGIVMGDLVLTVLIALAVYFLGRLVPRGRGAAEAATRKQRITETESPYQELQGQRSDVYSDLNTQRPYYK
B3: M17: human anti-mesothelin scFv, SEQ ID NO: 246 (protein)
scFv: EVQLVESGGGLVQPGRSLRLSCAASGFTFDDYAMHWVRQAPGKGLEWVSGISWNSGSTGYADSVKGRFTISRDNAKNSLYLQMNSLRAEDTALYYCAKDSSSWYGGGSAFDIWGQGTMVTVSSGGGGSGGGGSGGGGSSSELTQDPAVSVALGQTVRITCQGDSLRSYYASWYQQKPGQAPVLVIYGKNNRPSGIPDRFSGSSSGNTASLTITGAQAEDEADYYCNSRGSSGNHYVFGTGTKVTVL
B4: KIR2DL3: wild-type KIR2DL3 inhibitory receptor co-expressed in T cells (SEQ ID NO: 345) (protein)
chain: MSLMVVSMVCVGFFLLQGAWPHEGVHRKPSLLAHPGPLVKSEETVILQCWSDVRFQHFLLHREGKFKDTLHLIGEHHDGVSKANFSIGPMMQDLAGTYRCYGSVTHSPYQLSAPSDPLDIVITGLYEKPSLSAQPGPTVLAGESVTLSCSSRSSYDMYHLSREGEAHERRFSAGPKVNGTFQADFPLGPATHGGTYRCFGSFRDSPYEWSNSSDPLLVSVTGNPSNSWPSPTEPSSETGNPRHLHVLIGTSVVIILFILLLFFLLHRWCCNKKNAVVMDQEPAGNRTVNREDSDEQDPQEVTYAQLNHCVFTQRKITRPSQRPKTPPTDIIVYTELPNAEP

Key:
[1] = tested on: K562 cells engineered to express mesothelin; assay: Antigen-triggered cytokine secretion; format: cell-based, human; settings: Example 14, T cells:targets 2:1, 24 hours, ELISA
Description: Cytokine production of the huMeso-KIRS2-expressing CAR cells was also assessed. Primary human T cells were simulated, transduced with the huMes-KIRS2 and expanded as previously described. Following expansion, the transduced T cells were mixed with K562 (mesothelin-negative cells, empty bars) or K562 cells engineered to express mesothelin (black bars) at a ratio of 2:1. Cytokine concentrations (IFNγ and IL-2) were determined in supernatants following 24 hours of stimulation by ELISA for the indicated cytokines.

[2] = tested on: mesothelioma-derived cells expressing mesothelin (EM-meso cells); assay: EM-meso subcutaneous xenograft in NSG mice, tumor volume by caliper; format: in vivo, mouse; settings: 4 million T cells i.v. day 20
Description: 20 days following tumor implantation, each animal was injected intravenously with 5×10^6 T cells that were stimulated with anti-CD3/anti-CD28 stimulator beads followed lentiviral transduction with a series of CD3ζ-based CAR with or without a costimulatory domain (SS1-ζ, SS1-BBζ and SS1-28ζ) or the mesothelin-specific KIR-based CARs, SS1-KIRS2 with DAP12. Mock transduced T cells (NTD) were used as a control. Tumor volume was measured by caliper at the indicated times (n=7 mice per group). […] The frequency of human CD45+ T cells was assessed at the end of the experiment by flow cytometry, and data are expressed as a percentage of total viable cells in the blood, spleen and tumor digest. […] The frequency of CD3+ human lymphocytes in tumors at day 30 (10 days following CAR T infusion) was assessed by flow cytometry. […] 4 million T cells expressing DAP12 and dsRed (DAP12), SS1-28z or SS1-KIRS2 and DAP12 (SS1-KIRS2) were injected intravenously on day 20, and tumor volume was assessed over time via caliper measurement. […] Antigen-specific cytotoxicity was assessed by coculturing with firefly luciferase expressing EM-meso cells or EMp cells (parental EM cells lacking mesothelin expression) at indicated E:T ratios for 18 hours. […]
Animal models can also be used to measure activity of a CAR-expressing cell. […] Animals are assessed for tumor progression at weekly intervals. […]

[3] = tested on: K562-meso-HLACw; assay: KIR2DL3 suppression of KIR-CAR cytotoxicity, 51Cr release against K562-meso-HLACw; format: cell-based, human; settings: coexpressed with SS1-KIRS2/DAP12, HLA-Cw on the target cells
Description: K562 cells (K562) or K562 cells expressing mesothelin (K562-meso) were transduced with the HLA-Cw3 allele followed by fluorescence activated cell sorting to obtain K562 cells expressing HLA-Cw with (K562-meso-HLACw) or without (K562-HLACw) expression of mesothelin. HLA-Cw3 expression was assessed by flow cytometry using an APC-conjugated monoclonal antibody that recognizes HLA-A, B and C alleles (clone W6/32).
Primary human T cells were stimulated with CD3/28 microbeads followed by lentiviral transduction with SS1-KIRS2 and DAP12 (SS1-KIRS2) or mock transduced (NTD) in combination with wild-type KIR2DL3. The T cells were expanded until the end of log-phase growth. The surface expression of the mesothelin-specific CAR and KIR2DL3 was determined by staining with mesothelin-Fc followed by PE-conjugated goat-anti-human Fc and a monoclonal antibody to the KIR2DL3 ectodomain.
T cell that were generated and characterized as described in FIG. 21 were mixed with 51-Cr labeled target K562 cells that were generated and characterized as described in FIG. 22. Cytotoxicity was determined by measuring the fraction of ^51Cr released into the supernatant at 4 hours compared target cells without effector cells.

Molecule	IL-2 production [1]	also measured
B1	produced IL-2	
B2		tumor eradication by DAP12-modified T cells [2]: require the mesothelin-specific KIR-based CAR for tumor eradication
B3	produced IL-2	
B4		effect on antigen specific cytotoxicity of co-expressed KIR CAR [3]: can suppress antigen specific cytotoxicity
